± gives the standard deviation of the averaged measurements.
test system: ATP; test: switch fluorescence ratio, 500 uM ATP over buffer (Cy3 cluster intensity, sum of 5 cycles each) (fold (ratio)); higher = stronger signal-on switching upon ATP binding; sequences stand for … in TCGTCGGCAGCGTCAGATGTGTATAAGAGACAGTTTTTTTTTTTTTTTTTTTTTTTTT…TC; details: aptamer strand: ATP DNA aptamer (quencher-CACCTGGGGGAGTATTGCGGAGGAAGG + anchor), 100 nM annealed; ATP concentration: 500 uM
Outline: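 Values give the fluorescence ratio for each switch-domain sequence, averaged from per-cluster ratios of summed target-cycle to summed buffer-cycle Cy3 intensity. The Cy3-labelled switching-strand clusters sat on a modified Illumina MiSeq flow-cell, were annealed to 100 nM quencher-labelled ATP aptamer, and were imaged in selection buffer, then after 15 min with 500 uM ATP at 22 °C. Five cycles ran with NaOH stripping and re-annealing between them, and clusters outside 100-1000 RFU were excluded.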
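Note: ATP exposure 15 min at 22 °C before imaging.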

Sequence | switch fluorescence ratio
GGCTTAGGGG | 0.979 ± 0.022
GGCTTATAGG | 1.02 ± 0.036
GGCTTCACGA | 1.07 ± 0.014
GGCTTCTGCT | 0.959 ± 0.022
GGCTTGAAGG | 1.03 ± 0.032
GGCTTGGCGT | 0.98 ± 0.034
GGCTTGGGTT | 1.01 ± 0.039
GGCTTTATTC | 0.984 ± 0.044
GGCTTTCCTG | 1.1 ± 0.089
GGCTTTGAGG | 1.01 ± 0.019
GGCTTTGCCC | 0.9669 ± 0.0028
GGCTTTTACG | 1.03 ± 0.042
GGCTTTTGTG | 0.974 ± 0.036
GGCTTTTTTT | 0.994 ± 0.029
GGGAAAAAAG | 0.994 ± 0.026
GGGAAAAACA | 1.02 ± 0.05
GGGAAAAAGA | 1.03 ± 0.012
GGGAAAAATA | 1.24 ± 0.51
GGGAAAAGA | 1.04 ± 0.018
GGGAAAATGG | 1.01 ± 0.016
GGGAAACAAA | 0.96 ± 0.059
GGGAAACAAT | 1.55 ± 0.91
GGGAAAGATG | 0.986 ± 0.042
GGGAAAGGGC | 0.961 ± 0.021
GGGAAAGGGT | 1 ± 0.014

Sequence | switch fluorescence ratio
GGGAAATAAA | 0.988 ± 0.013
GGGAAATAGT | 0.9877 ± 0.0057
GGGAAATATT | 1.06 ± 0.14
GGGAAATCAT | 0.997 ± 0.015
GGGAAATTAT | 0.9917 ± 0.0045
GGGAACTTGG | 0.986 ± 0.0099
GGGAAGAAAT | 1 ± 0.037
GGGAAGACGA | 1.01 ± 0.014
GGGAAGAGAG | 0.985 ± 0.021
GGGAAGGCCA | 0.973 ± 0.024
GGGAAGGGGC | 1.02 ± 0.018
GGGAAGGGTA | 1 ± 0.033
GGGAAGGTTT | 1.01 ± 0.012
GGGAAGTTTG | 1 ± 0.038
GGGAATAGAT | 0.9835 ± 0.002
GGGAATAGCT | 0.999 ± 0.03
GGGAATAGGG | 1.01 ± 0.02
GGGAATATTA | 1.04 ± 0.023
GGGAATCGTA | 1.04 ± 0.015
GGGAATCGTG | 0.983 ± 0.012
GGGAATGGGT | 1.01 ± 0.014
GGGAATTACT | 1.87 ± 1.1
GGGAATTTAA | 1.02 ± 0.019
GGGAATTTGC | 1 ± 0.036
GGGAATTTGT | 0.9942 ± 0.0096

Sequence | switch fluorescence ratio
GGGAATTTTT | 1 ± 0.053
GGGACAAGAT | 0.999 ± 0.026
GGGACACGA | 0.988 ± 0.024
GGGACAGAGG | 0.988 ± 0.0047
GGGACAGCCT | 1.01 ± 0.017
GGGACCGGCA | 1.01 ± 0.029
GGGACCTTGT | 1.01 ± 0.064
GGGACGATTT | 0.995 ± 0.017
GGGACGGGGC | 1.06 ± 0.041
GGGACGGTAG | 1.04 ± 0.034
GGGACTCCAA | 1.24 ± 0.35
GGGACTGGGA | 1 ± 0.031
GGGACTTAGC | 1.02 ± 0.022
GGGAGAACGG | 0.977 ± 0.046
GGGAGAAGAG | 0.979 ± 0.036
GGGAGAAGGG | 0.95 ± 0.023
GGGAGAGAAT | 1.005 ± 0.0058
GGGAGAGACT | 1.03 ± 0.014
GGGAGAGGGC | 0.991 ± 0.013
GGGAGATAGA | 0.982 ± 0.052
GGGAGATGAC | 1.01 ± 0.022
GGGAGGAGCA | 1.01 ± 0.073
GGGAGGAGGT | 0.98 ± 0.024
GGGAGGATTT | 0.987 ± 0.013
GGGAGGCCGT | 1.04 ± 0.027

Sequence | switch fluorescence ratio
GGGAGGCTCG | 1 ± 0.0082
GGGAGGGGAG | 0.981 ± 0.019
GGGAGGGGTT | 1.01 ± 0.04
GGGAGGGTTG | 0.981 ± 0.031
GGGAGGTATT | 0.99676 ± 0.00098
GGGAGTGAGA | 1.03 ± 0.035
GGGAGTGAGG | 1.01 ± 0.011
GGGATAAGAA | 0.992 ± 0.02
GGGATAGGCT | 1.02 ± 0.021
GGGATATAAT | 1.02 ± 0.022
GGGATATGTT | 0.9921 ± 0.0071
GGGATCATTA | 0.983 ± 0.02
GGGATCCTCC | 1.027 ± 0.006
GGGATCGGGA | 0.995 ± 0.013
GGGATCGTAA | 0.987 ± 0.016
GGGATCGTTG | 0.965 ± 0.017
GGGATCTGAA | 0.969 ± 0.026
GGGATCTTGA | 1.07 ± 0.051
GGGATGAATA | 0.982 ± 0.042
GGGATGACGG | 0.975 ± 0.036
GGGATGAGAG | 1 ± 0.04
GGGATGAGGA | 0.9848 ± 0.0044
GGGATGCGG | 0.9609 ± 0.0064
GGGATGGCAG | 0.9816 ± 0.0059
GGGATGGCTG | 1.01 ± 0.055

Sequence | switch fluorescence ratio
GGGATGGGAT | 0.978 ± 0.037
GGGATGGGGA | 1.02 ± 0.032
GGGATGGGTT | 0.989 ± 0.025
GGGATGGTTT | 0.988 ± 0.028
GGGATTAGAT | 0.982 ± 0.013
GGGATTATAT | 1.02 ± 0.032
GGGATTATGT | 0.97 ± 0.015
GGGATTCGCA | 0.99 ± 0.053
GGGATTCGGG | 1.02 ± 0.022
GGGATTGCTA | 1.03 ± 0.012
GGGATTGGTG | 0.995 ± 0.026
GGGATTTGTA | 1.02 ± 0.017
GGGCAAAAAA | 1.03 ± 0.073
GGGCAAACTT | 1.02 ± 0.018
GGGCAAAGGG | 0.999 ± 0.041
GGGCAACTGA | 1.01 ± 0.024
GGGCAAGAGT | 1.03 ± 0.024
GGGCAAGGAG | 1.01 ± 0.02
GGGCAAGTCA | 1.02 ± 0.014
GGGCAATGCT | 3.33 ± 3.1
GGGCACAGAA | 0.9751 ± 0.0022
GGGCACGTCG | 0.9888 ± 0.0094
GGGCACTGGT | 1.04 ± 0.032
GGGCAGAAAT | 1.01 ± 0.048
GGGCAGCGCA | 0.99057 ± 0.00048

Sequence | switch fluorescence ratio
GGGCAGCTCT | 0.958 ± 0.016
GGGCAGGCAC | 0.993 ± 0.018
GGGCAGGGAG | 1 ± 0.017
GGGCATATTC | 1.155 ± 0.0089
GGGCATGCAT | 1.019 ± 0.0086
GGGCATGGTG | 1.05 ± 0.025
GGGCATGTAC | 1.57 ± 0.15
GGGCATTTAG | 1.03 ± 0.092
GGGCCAACGA | 1.042 ± 0.0014
GGGCCAAGGA | 1.01 ± 0.02
GGGCCCATA | 0.982 ± 0.028
GGGCCCGCAA | 5.05 ± 0.21
GGGCCCGGTT | 1.005 ± 0.0068
GGGCCCTTAC | 1.11 ± 0.06
GGGCCGCGCT | 0.942 ± 0.039
GGGCCGGTTG | 0.995 ± 0.017
GGGCCTGGAG | 1.012 ± 0.0086
GGGCGAAATG | 1.32 ± 0.28
GGGCGCAAGG | 1.02 ± 0.029
GGGCGCCATC | 1.01 ± 0.016
GGGCGCGGTG | 1.06 ± 0.081
GGGCGCTTCT | 0.9913 ± 0.0072
GGGCGGATGG | 0.986 ± 0.018
GGGCGGCGGC | 0.988 ± 0.0099
GGGCGGCTGC | 0.955 ± 0.03

Sequence | switch fluorescence ratio
GGGCGGCTGT | 1 ± 0.033
GGGCGGGGGA | 1.06 ± 0.079
GGGCGGTATA | 0.986 ± 0.025
GGGCGGTCGG | 1 ± 0.03
GGGCGTAAAA | 1.07 ± 0.023
GGGCGTCGGT | 0.984 ± 0.015
GGGCGTTTTT | 0.992 ± 0.017
GGGCTAAAAC | 0.971 ± 0.035
GGGCTATGTA | 0.993 ± 0.0095
GGGCTGAGGG | 0.988 ± 0.029
GGGCTGTTGC | 1.08 ± 0.13
GGGCTTATGA | 1.018 ± 0.0044
GGGCTTGAAG | 1.01 ± 0.017
GGGCTTGTAT | 1.03 ± 0.014
GGGCTTGTCC | 0.98 ± 0.043
GGGCTTTACG | 1.01 ± 0.011
GGGCTTTATG | 0.986 ± 0.023
GGGCTTTTCG | 0.992 ± 0.024
GGGGAAACGA | 0.9987 ± 0.0015
GGGGAAAGAG | 1 ± 0.017
GGGGAAAGCG | 1 ± 0.026
GGGGAAATTA | 1.02 ± 0.012
GGGGAACGGT | 1.03 ± 0.012
GGGGAAGAAG | 0.969 ± 0.02
GGGGAAGCCT | 1.07 ± 0.03

Sequence | switch fluorescence ratio
GGGGAAGCGG | 0.991 ± 0.056
GGGGAAGGGG | 1.03 ± 0.058
GGGGAAGTTT | 0.998 ± 0.027
GGGGAATTTG | 1.01 ± 0.041
GGGGACAATG | 1.02 ± 0.044
GGGGACACGG | 1.03 ± 0.016
GGGGACAGAT | 0.991 ± 0.017
GGGGACGAGC | 0.999 ± 0.027
GGGGACGATG | 0.996 ± 0.019
GGGGACGTAC | 1.47 ± 0.22
GGGGACGTAT | 1.01 ± 0.019
GGGGACGTTT | 1.03 ± 0.043
GGGGACTAGG | 0.982 ± 0.058
GGGGACTAGT | 0.957 ± 0.043
GGGGACTGCA | 1.03 ± 0.049
GGGGAGAAAC | 1.08 ± 0.042
GGGGAGAACT | 0.992 ± 0.016
GGGGAGAAGA | 0.9662 ± 0.005
GGGGAGACGA | 1.04 ± 0.022
GGGGAGAGAC | 1.04 ± 0.041
GGGGAGCCGT | 1.03 ± 0.086
GGGGAGGAAG | 0.997 ± 0.012
GGGGAGGCCC | 0.998 ± 0.031
GGGGAGGGAC | 1.02 ± 0.053
GGGGAGGGCC | 1.01 ± 0.032
